Data reported in PMC4798948, “Nucleocapsid assembly in pneumoviruses is regulated by conformational switching of the N protein” (eLife, 2016).
“And” between values parts separate entries of the source, which are not always exact repeats. Identical values can stand only once.

Tests used:
[1] = target: the molecule itself; experiment: crystal structure; N-RNA ring (~4 mg/mL), RNA-bound; 100 mM Tris/Bicine pH 8.5, 90 mM NPS, 37.5% MPD/PEG 1000/PEG 3350 (MORPHEUS); 4.2 Å; ten-fold non-crystallographic symmetry
[2] = target: the molecule itself; experiment: electron cryomicroscopy with 2D classification; purified N-RNA preparation plunge-frozen on holey carbon grids; 2D-class averages with RELION

B1: HMPV nucleoprotein N, assembled RNA-bound state (N-RNA rings) (natural protein)
chain: MSLQGIHLSDLSYKHAILKESQYTIKRDVGTTTAVTPSSLQQEITLLCGEILYAKHADYKYAAEIGIQYISTALGSERVQQILRNSGSEVQVVLTRTYSLGKIKNNKGEDLQMLDIHGVEKSWVEEIDKEARKTMATLLKESSGNIPQNQRPSAPDTPIILLCVGALIFTKLASTIEVGLETTVRRANRVLSDALKRYPRMDIPKIARSFYDLFEQKVYHRSLFIEYGKALGSSSTGSKAESLFVNIFMQAYGAGQTMLRWGVIARSSNNIMLGHVSVQAELKQVTEVYDLVREMGPESGLLHLRQSPKAGLLSLANCPNFASVVLGNASGLGIIGMYRGRVPNTELFSAAESYAKSLKESNKINFSSLGLTDEEKEAAEHFLNVSDDSQNDYE
notes: Nucleoprotein N of human metapneumovirus, strain NL1-00 (A1), full-length N gene, 394 residues; each N subunit contacts seven RNA nucleotides; also called subnucleocapsid ring; decameric N-RNA ring; source: Rosetta2 E. coli, purified (Ni-NTA, Superose 6), with RNA from the expression host
B1 was tested, and the “stoichiometry N” value [1] was 10 and the “stoichiometry N” value [2] was 9 and 11.
